Source: publication doi:10.1101/2025.09.02.673855, “Bacteriophage T4 gene 32 protein: Insights into its Interaction with ssDNA, binding cooperativity, and conformational change” (bioRxiv, 2025)
Where a chain is given by its changes, count along the chain named. Names may count otherwise.

B1: Bacteriophage T4 gene 32 protein, full-length protein (1-301) (natural protein, UniProt P03695 1-301, looked up)
chain: MFKRKSTAELAAQMAKLNGNKGFSSEDKGEWKLKLDNAGNGQAVIRFLPSKNDEQAPFAILVNHGFKKNGKWYIETCSSTHGDYDSCPVCQYISKNDLYNTDNKEYSLVKRKTSYWANILVVKDPAAPENEGKVFKYRFGKKIWDKINAMIAVDVEMGETPVDVTCPWEGANFVLKVKQVSGFSNYDESKFLNQSAIPNIDDESFQKELFEQMVDLSEMTSKDKFKSFEELNTKFGQVMGTAVMGGAAATAAKKADKVADDLDAFNVDDFNTKTEDDFMSSSSGSSSSADDTDLDDLLNDL
notes: also called gp32; wild-type gp32; source: expression plasmid pYS6, induced, overexpressed and purified as previously described
B2: gp32 variant D215A, E218A, D223A (natural protein, bacteriophage T4, UniProt P03695 1-301, looked up)
chain: B1 chain with D215A, E218A, D223A
notes: gene 32 protein of bacteriophage T4 with three negative charges removed within and adjacent to the B helix (216-220); source: pYS6 variant, induced, overexpressed and purified as previously described
B3: gp32 variant E229A, E230A (natural protein, bacteriophage T4, UniProt P03695 1-301, looked up)
chain: B1 chain with E229A, E230A
notes: gene 32 protein of bacteriophage T4 with two negative charges removed within the C helix (228-237); source: pYS6 variant, induced, overexpressed and purified as previously described

Target: the molecule itself
Assay: other fluorescence titration; aliquots of protein added to poly(εA), enhancement of ethenoadenylate fluorescence; 0.45 M NaCl, 0.02 M HEPES pH 7.68, 1x10^-4 M EDTA/Na+, 20°C; McGhee-von Hippel cooperative model, n = 8; ω is the cooperativity between adjacent proteins bound on the polynucleotide

Q: How did the “cooperativity parameter ω (on poly(εA))” value turn out when B1 was run?
A: 2000

Q: Which “cooperativity parameter ω (on poly(εA))” value does the source give for B2 here?
A: 120

Q: B3 was tested. Which “cooperativity parameter ω (on poly(εA))” value did it give?
A: 1000
